Results on ten molecules are retold here after patent US20220204643A1 (published 2022).

Holding throughout (assay): protein array
Assay [1] addresses T1, zinc finger with KRAB and SCAN domains 4, transcript variant X1 (human, UniProt Q969J2 1-545).
T1 construct: on protein array; also called ZKSCAN4
T1 sequence: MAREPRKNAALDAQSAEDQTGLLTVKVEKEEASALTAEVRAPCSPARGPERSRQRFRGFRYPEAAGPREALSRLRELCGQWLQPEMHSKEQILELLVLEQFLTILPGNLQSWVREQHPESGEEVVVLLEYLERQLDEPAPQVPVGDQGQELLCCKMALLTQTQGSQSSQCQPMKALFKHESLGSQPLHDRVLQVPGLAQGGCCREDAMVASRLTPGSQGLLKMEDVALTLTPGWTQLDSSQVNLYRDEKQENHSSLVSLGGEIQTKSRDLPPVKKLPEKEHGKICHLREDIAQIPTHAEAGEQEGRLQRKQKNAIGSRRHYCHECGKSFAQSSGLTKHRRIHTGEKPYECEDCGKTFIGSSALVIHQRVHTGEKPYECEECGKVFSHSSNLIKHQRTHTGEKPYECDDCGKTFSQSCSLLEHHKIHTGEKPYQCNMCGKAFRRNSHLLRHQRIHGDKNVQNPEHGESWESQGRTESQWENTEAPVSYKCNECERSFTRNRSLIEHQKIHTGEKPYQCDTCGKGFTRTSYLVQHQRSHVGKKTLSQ

Assay [2] has as its target T2, HAUS augmin like complex subunit 1, transcript variant 1 (human, UniProt Q96CS2 1-278).
T2 construct: on protein array; also called HAUS1
T2 sequence: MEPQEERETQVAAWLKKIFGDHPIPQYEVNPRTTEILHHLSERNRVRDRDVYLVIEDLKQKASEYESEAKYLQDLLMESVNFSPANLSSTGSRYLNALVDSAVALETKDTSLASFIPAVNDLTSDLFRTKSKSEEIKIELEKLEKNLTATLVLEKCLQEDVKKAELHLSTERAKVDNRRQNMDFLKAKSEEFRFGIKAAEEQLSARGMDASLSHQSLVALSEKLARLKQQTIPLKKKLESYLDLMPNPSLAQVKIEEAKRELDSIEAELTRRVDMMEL

For assay [3], the target named is T3, cyclin dependent kinase 2 associated protein 2, transcript variant 1 (human, UniProt O75956 1-126).
T3 construct: on protein array; also called CDK2AP2
T3 sequence: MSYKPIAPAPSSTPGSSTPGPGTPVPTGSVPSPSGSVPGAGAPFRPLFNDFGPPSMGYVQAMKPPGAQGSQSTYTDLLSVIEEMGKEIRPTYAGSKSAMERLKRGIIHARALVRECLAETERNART

The target in assay [4] is T4, NFKB inhibitor beta, transcript variant 1 (human, UniProt Q15653 1-356).
T4 construct: on protein array; also called NFKBIB
T4 sequence: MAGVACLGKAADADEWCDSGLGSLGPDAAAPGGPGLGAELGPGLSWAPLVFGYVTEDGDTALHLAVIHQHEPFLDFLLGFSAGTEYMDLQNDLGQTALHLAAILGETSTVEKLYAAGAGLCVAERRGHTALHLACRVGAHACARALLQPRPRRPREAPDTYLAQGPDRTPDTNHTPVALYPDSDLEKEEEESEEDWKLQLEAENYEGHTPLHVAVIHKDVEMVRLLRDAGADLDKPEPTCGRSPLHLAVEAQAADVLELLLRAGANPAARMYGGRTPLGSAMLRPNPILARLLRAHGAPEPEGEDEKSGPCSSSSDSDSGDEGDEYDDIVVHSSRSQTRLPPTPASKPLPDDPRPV

The target in assay [5] is T5, Transforming growth factor beta 3 (human, UniProt P10600 24-412).
T5 construct: on protein array; also called TGFB3
T5 sequence: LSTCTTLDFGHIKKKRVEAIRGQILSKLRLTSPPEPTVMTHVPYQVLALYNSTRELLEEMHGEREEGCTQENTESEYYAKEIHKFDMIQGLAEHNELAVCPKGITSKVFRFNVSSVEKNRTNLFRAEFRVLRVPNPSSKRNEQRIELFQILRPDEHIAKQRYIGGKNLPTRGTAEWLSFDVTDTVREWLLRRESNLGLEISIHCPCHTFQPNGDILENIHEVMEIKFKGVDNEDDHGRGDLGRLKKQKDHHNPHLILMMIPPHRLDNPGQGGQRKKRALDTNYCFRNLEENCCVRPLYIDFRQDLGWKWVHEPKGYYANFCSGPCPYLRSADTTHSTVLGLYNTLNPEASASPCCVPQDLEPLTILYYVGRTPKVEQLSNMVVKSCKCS

For assay [6], the target named is T6, transforming growth factor beta induced (human, UniProt Q15582 24-683).
T6 construct: on protein array; also called TGFBI
T6 sequence: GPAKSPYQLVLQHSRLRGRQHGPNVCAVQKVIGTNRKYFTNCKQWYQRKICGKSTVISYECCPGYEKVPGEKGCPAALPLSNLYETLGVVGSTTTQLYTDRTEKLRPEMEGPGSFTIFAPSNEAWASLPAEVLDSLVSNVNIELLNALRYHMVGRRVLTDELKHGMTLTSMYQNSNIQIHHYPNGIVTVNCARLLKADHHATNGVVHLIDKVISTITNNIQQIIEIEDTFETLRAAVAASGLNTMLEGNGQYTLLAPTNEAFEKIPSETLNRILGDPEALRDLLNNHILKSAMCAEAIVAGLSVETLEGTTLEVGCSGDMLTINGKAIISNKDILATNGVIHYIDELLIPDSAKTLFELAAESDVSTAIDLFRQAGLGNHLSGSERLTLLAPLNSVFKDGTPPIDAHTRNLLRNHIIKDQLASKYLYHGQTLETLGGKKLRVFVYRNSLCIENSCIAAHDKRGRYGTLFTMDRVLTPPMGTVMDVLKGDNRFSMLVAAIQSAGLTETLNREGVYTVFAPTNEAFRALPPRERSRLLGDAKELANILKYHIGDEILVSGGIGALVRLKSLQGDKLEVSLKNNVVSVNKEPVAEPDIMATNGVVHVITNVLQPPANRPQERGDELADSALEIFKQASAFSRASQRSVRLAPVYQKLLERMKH

Assay [7] has as its target T7, chymotrypsinogen B2 (human, UniProt Q6GPI1 19-263).
T7 construct: on protein array; also called CTRB2

Assay [8] deals with T8, calcium and integrin binding 1, transcript variant b (human, UniProt Q99828 2-191).
T8 construct: on protein array; also called CIB1
T8 sequence: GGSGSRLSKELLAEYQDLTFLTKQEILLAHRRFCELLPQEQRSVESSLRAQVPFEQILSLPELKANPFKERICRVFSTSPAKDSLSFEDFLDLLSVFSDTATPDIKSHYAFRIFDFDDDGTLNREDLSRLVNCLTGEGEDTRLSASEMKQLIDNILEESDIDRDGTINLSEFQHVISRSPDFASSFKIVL

The target in assay [9] is T9, dual specificity phosphatase 12 (human, UniProt Q9UNI6 1-340).
T9 construct: on protein array; also called DUSP12
T9 sequence (Q9UNI6 whole entry): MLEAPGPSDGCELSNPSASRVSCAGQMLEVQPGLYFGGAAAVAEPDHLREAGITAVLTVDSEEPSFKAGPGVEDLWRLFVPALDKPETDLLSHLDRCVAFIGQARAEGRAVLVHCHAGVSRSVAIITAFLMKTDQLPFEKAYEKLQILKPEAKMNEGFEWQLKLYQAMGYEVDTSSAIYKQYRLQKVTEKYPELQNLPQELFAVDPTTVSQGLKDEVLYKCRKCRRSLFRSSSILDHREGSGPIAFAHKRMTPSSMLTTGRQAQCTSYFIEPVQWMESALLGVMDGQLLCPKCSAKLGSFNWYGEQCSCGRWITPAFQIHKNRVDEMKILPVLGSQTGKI

Assay [10] has as its target T10, actinin alpha 1, transcript variant 2 (human, UniProt P12814 1-892).
T10 construct: on protein array; also called ACTN1

For assay [11], the target named is T11, zinc finger DHHC-type containing 1, transcript variant 1 (human, UniProt Q8WTX9 1-485).
T11 construct: on protein array; also called ZDHHC1
T11 sequence: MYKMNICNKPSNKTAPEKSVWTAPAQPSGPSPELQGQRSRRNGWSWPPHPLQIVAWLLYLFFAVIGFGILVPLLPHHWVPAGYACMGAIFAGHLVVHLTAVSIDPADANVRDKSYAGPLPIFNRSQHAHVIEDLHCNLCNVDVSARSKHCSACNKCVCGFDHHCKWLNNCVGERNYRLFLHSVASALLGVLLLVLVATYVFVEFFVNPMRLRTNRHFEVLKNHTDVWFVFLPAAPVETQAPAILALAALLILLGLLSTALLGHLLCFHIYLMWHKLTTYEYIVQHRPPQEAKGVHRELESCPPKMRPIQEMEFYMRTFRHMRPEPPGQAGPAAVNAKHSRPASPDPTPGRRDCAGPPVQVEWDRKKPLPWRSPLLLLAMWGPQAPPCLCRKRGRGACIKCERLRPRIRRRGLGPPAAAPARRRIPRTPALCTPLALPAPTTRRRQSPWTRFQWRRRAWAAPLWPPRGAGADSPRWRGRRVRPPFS

The target of assay [12] is T12, BCL2 apoptosis regulator, transcript variant alpha (human, UniProt P10415 1-239).
T12 construct: on protein array
T12 sequence (P10415 whole entry, change not shown): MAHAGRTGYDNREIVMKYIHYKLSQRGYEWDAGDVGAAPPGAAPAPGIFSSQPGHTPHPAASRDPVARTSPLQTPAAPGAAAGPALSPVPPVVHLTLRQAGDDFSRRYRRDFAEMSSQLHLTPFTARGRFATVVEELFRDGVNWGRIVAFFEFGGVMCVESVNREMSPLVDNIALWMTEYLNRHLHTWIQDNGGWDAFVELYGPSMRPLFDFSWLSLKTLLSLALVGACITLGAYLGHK

T10 sequence (P12814 whole entry, change not shown): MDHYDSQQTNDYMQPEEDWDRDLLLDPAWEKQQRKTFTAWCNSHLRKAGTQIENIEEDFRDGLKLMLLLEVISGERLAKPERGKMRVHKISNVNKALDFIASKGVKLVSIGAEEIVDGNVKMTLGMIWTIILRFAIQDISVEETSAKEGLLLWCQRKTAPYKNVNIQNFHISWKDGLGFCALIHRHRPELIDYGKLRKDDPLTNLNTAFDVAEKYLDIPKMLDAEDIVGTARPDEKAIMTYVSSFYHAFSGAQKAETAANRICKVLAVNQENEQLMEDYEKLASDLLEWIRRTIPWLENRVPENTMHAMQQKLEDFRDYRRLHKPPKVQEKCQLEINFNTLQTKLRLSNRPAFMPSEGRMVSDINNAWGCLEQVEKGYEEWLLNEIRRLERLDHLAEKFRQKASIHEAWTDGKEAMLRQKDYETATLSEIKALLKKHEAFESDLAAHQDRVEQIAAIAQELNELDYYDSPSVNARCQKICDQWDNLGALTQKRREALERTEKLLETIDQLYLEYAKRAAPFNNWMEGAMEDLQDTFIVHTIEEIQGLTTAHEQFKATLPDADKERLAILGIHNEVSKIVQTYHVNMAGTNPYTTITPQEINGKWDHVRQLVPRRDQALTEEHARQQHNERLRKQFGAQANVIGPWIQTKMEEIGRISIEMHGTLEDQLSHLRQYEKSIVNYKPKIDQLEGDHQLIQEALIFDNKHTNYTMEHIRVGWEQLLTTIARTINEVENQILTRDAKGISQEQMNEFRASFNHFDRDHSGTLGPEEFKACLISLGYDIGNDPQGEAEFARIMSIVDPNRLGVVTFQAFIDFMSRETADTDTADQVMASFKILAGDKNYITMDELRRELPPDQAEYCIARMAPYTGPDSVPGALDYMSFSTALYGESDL
T7 sequence (Q6GPI1 19-263 limits assumed): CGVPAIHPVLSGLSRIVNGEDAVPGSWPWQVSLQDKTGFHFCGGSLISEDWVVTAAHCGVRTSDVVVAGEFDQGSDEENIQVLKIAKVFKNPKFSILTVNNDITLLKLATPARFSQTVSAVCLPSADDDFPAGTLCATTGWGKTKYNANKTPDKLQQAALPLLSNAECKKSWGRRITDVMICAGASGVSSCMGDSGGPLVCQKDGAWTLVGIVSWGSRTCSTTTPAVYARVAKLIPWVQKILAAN

B1: TBRE1009 (antibody, V domains shown)
VH: EVQLVESGGGLVKPGGSLRLSCVGSGFTFSNYSMNWVRQAPGRGLEWVSSISWGSSYINYADSVKGRFTISRDNAKNSLYLQMTSLTAEDTAVYYCACRRIYQGFDPWGQGTLVT
VL: DIQMTQSPSSLSASVGDRVTISCRASHNINTYLNWYQHKPGKAPKIVIYGASSLQSGVPSRFSGSGSGTDFSLTISSLQREDFATYFCQQSFNTVLTFGGGTRVDI
notes: VH/VL only
Regarding B1, the binding result in assay [1] was “binds”.

B2: TSTO1002 (antibody, V domains shown)
VH: EVQLVESGGGLVKPGGSLRLSCAASGFTFSNAWMNWVRQTPGKGLEWVGRIKTKTDGGTTDYAEPVKGRFTISRDDSKNTLYLQMNSLKTEDTAVYYCTRGAVADYWGQGTQVTVSS
VL: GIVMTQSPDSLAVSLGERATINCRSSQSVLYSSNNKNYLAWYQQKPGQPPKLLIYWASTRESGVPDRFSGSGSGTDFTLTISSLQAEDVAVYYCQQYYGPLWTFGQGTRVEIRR
notes: VH/VL tied via antigen in summary, not by name in this stretch
As to B2, the binding result in [2] is listed as “binds”.

B3: TSTO1005 (antibody, V domains shown)
VH: EVQLVESGGGVVQPGGSLRLSCAASGFTFEDFGMHWVRQAPGKGLEWVAFTRFDGSEKYYVDSVKGRFTVSRDNSKNTLFLHMNSLRPEDTAVYYCAKTRSYSSADTTRPNAPGYWGQGTLVTVSS
VL: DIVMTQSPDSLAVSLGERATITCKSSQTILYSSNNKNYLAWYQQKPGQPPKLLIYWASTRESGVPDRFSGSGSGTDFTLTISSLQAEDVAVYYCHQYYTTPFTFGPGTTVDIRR
notes: as for B2
As for B3, the binding result in assay [3] and in [4] was “binds” each time.

B4: TSTO1003 (antibody, V domains shown)
VH: QVQLKQSGGGVVQPGRSLTLSCVASGLTFSDYGMHWVRQAPGKGLEWVAVIWHDGSKTNYADSVKGRIIISRDNSKSTVYLQMNRLRGEDTAVYYCATSHGGLVPGGENYWGQGTLVTVSS
VL: SDELTQPPSVSVSPGQTARITCSGDALAKEYAYWYQQKSGQAPVLVISKDTERPSGIPARFSGSSSGTTVTLTISGVQSDDEADYYCQSADSSLTYWLFGGGTKLTVLR
notes: as for B2
B4: the binding result in assay [5] is recorded as “binds”.

B5: TSTO1008 (antibody, V domains shown)
VH: AVQLVQSGAEVKKPGESLRISCKGSGYSFSTYWIIWVRQMPGKGLEWIGRFDPSDSYNVNSPSFQGHVTISADTSINTAYLQWSSLKASDSAMYYCARRSDKAVPGTFDQWGQGTLVTVSS
VL: RSVLTQPPSVSAAPGQKVIISCSGSSSNIGNNYVSWYQQFLGTAPKLLIYDTDKRPSGIPDRFSGSKSGTSATLGITGLQTGDEAHYYCATWDSSLRAGPVVFGGGTKLTVLG
notes: as for B2
For the molecule B5, the binding result in assay [6] was “binds”.

B6: TSTO1004 (antibody, V domains shown)
VH: QVQLVQSGSELKKPGASVKVSCTSSGYVFTSFGVSWVRQVPGQGPEWMGWISPYTRQTKYAQSLQGRITLTADTSTNTTYMELRSLRSDDTAMYYCVREEFGVVRGPNPFDVWGQGTMVTVSS
VL: DIQMTQAPSTLSASVGDRVSITCRASQNIRDFLAWYQQKPGRAPDLLIYRASTLEKGVSARFSGSGSGTEFTLTITGLQPDDFATYYCQQYSDYSTFGGGTRVEIK
notes: as for B2
As for B6, the binding result in assay [7] is “binds”.

B7: TSTO1001 (antibody, V domains shown)
VH: VVQLLESGGGLVHPGGSLRISCAASEFTFSAYAMTWVRQAPGKGLEWVSAISGSGGRTYYADSLKGRFTISRDNSKHTLYLLMNSLRVEDTAVYYCASRYRSPSGAFDIWGQGTLVTVSS
VL: EIVMTQSPATLSVSQGERATLSCRASQSVGSDLAWYQQKPGQAPRLLIYDASARATDIPARFSGSGSETEFTLTISSLQSEDFAVYYCQHYSDWRALTFGGGTKVEIKR
notes: as for B2
Turning to B7, the binding result in assay [8] was “binds”.

B8: TBRE1007 (antibody, V domains shown)
VH: QVQLQESGPGLVRPSETLSLTCDVSGYLISSGYYWGWVRQPPGKGLEWIGSVYHSGNAYYNPSLKGRVTMSVDTSKNQFSLKLTSVAAEDTAVYYCAREHRSGYQRYWGQGTLVTVSS
VL: IQMTQSPSSLSASVGDRVTITCRASQAIANSLAWYQQRPGKAPKLLIYAASSLESGVPSRFSGSGSGTDYTLTISSLQPEDFATYYCQQYYINPRTFGQGTKVEIKR
notes: VH/VL only
As to B8, the binding result in assay [9] and in assay [10] was “binds” each time.

B9: TBLA1003 (antibody, V domains shown)
VH: EVQLVESGGGLIQPGRSLRLSCAASGFTFEDYAMHWVRQAPGKGLEWVSGISWNSGNIGYADSVKGRFTISRDNAKNSLYLQMHSLRPEDTALYYCAKDINFFGLGTGGGAMDVWGQGTTVTVSS
VL: DIQMTQSPSYVSASVGDRVTITCRASQGIDVWLAWYQQKPGKAPKLLIYTASSLQSGVPSRFSGSGGGTEFTLTISSLQPEDFATYYCQQSNSFPGTFGPGTKVDVKR
notes: VH/VL only
As for B9, the binding result in [11] was “binds”.

B10: TSTO1010 (antibody, V domains shown)
VH: EVQLVESGGGLVKPRGSLRLSCAASGFTFSAYGMNWVRQAPGKGLEWVSSISGDSRDIYYGASMKGRFTISRDNAKSSLYLQMNSLRAEDTAVYYCARGEGGELWAFDYWGLGVLVTVSS
VL: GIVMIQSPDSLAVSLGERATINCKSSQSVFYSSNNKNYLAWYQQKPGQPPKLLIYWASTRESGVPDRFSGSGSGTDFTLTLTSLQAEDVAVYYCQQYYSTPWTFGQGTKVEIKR
notes: as for B2
On to B10, for which the binding result in assay [12] is reported as “binds”.
